Key:
MDA-MB-231 cells = experiment: GFP-TR3/ΔDBD localization and cytochrome c release in MDA-MB-231 cells; format: cell-based; settings: MDA-MB-231, absence of any treatment
Procedure: (§1) Subcellular localization assays—Cells were seeded onto cover-slips in 6-well plates overnight, then transiently transfected with GFP-fusion expression plasmids. After 16 hours, cells were washed with PBS and fixed in 4% paraformaldehyde. For mitochondrial staining, cells were then incubated with anti-Hsp60 goat IgG (Santa Cruz, USA), followed by anti-goat IgG conjugated with Cy3 (Sigma). For cyt c staining, cells were incubated with monoclonal anti-cyt c IgG (PharMingen), followed by anti-mouse IgG conjugated with Cy5 (Amersham). Fluorescent images were collected and analyzed using a MRC-1024 MP laser-scanning confocal microscope (Bio-Rad). Subcellular fractionation assays were performed as described (Li, et al. 2000 Science 289:1159-1164). Briefly, cells (1×10^7 cells) suspended in 0.5 ml hypotonic buffer (5 mM Tris-HCl, pH 7.4, 5 mM KCl, 1.5 mM MgCl2, 0.1 mM EGTA, pH 8.0, and 1 mM DTT) were homogenized and cell extracts were centrifuged at 500×g for 5 min. […]
To study whether the TR3 nuclear-to-mitochondrial targeting pathway also occurs in breast cancer cells, a GFP-TR3 fusion construct was transfected into MDA-MB-231 cells. […] Next, GFP-TR3/ΔDBD was transiently transfected into ZR-75-1 or MDA-MB-231 cells, stained for mitochondria (Hsp60) and cytochrome c (Cyt c), and analyzed by confocal microscopy.

[1] = test system: NCI-H460 lung cancer cells; experiment: GFP-TR3/ΔDBD mitochondrial targeting in NCI-H460 lung cancer cells; format: cell-based; settings: transient transfection
Procedure: as §1, with “min. The resulting supernatant was centrifuged at 10,000×g for 30 min at 4° C. to obtain the HM fraction.” for “min.”
Given the results of these studies, it was desirable to determine whether TR3 exerts its apoptotic effect in lung cancer cells as in prostate cancer cells by targeting to mitochondria. […] The cells were stained for mitochondria (Hsp60) and cytochrome c (Cyt c), and analyzed by confocal microscopy. […]

[2] = test system: MCF-7 breast cancer cells; experiment: DAPI apoptosis assay in MCF-7 cells; format: cell-based
Procedure: Apoptosis assays—For nuclear morphological change analysis, cells were trypsinized, washed with PBS, fixed with 3.7% paraformaldehyde, and stained with DAPI (4,6-diamidino-2-phenylindole) (50 μg/ml) to visualize the nuclei by UV-microscopy. The percentages of apoptotic cells were determined by counting 300 GFP-positive cells, scoring cells having nuclear fragmentation and/or chromatin condensation.
DAPI staining was used to study the apoptotic effect of TR3/Bcl-2 interaction. 293T cells were transfected with GFP-TR3/ΔDBD alone or together with Bcl-2. After 36 h, nuclei were stained by DAPI and nuclear fragmentation and chromatin condensation were identified. Cells were also stained with anti-Bcl-2 antibody, followed by TRITC-conjugated secondary antibody (Sigma). Bcl-2 and GFP-ΔDBD expression and nuclear morphology were visualized by fluorescence microscopy, and the two images were overlaid. […] But, when Bcl-2 was cotransfected, a significant amount of transfected cells underwent apoptosis. For example, approximately 4% of cells transfected with either TR3/ΔDBD or Bcl-2 were apoptotic, compared to 35% of cell transfected with both. […] Cotransfection of Bcl-2, however, prevented BAX-induced apoptosis in these cells (see FIG. 4). The effect of Bcl-2 on apoptotic potential of TR3/ΔDBD in lung cancer and breast cancer cells was also investigated.

Bcl-2 = molecular target: T1, Bcl-2 (Homo sapiens, UniProt P10415); experiment: Bcl-2 conformation by epitope-specific antibody immunofluorescence (flow cytometry); format: cell-based; settings: HEK293T, co-expressed with Bcl-2, 14 h
T1 construct: expressed in transfected cells; host or cells: HEK293T
T1 sequence (P10415 whole entry): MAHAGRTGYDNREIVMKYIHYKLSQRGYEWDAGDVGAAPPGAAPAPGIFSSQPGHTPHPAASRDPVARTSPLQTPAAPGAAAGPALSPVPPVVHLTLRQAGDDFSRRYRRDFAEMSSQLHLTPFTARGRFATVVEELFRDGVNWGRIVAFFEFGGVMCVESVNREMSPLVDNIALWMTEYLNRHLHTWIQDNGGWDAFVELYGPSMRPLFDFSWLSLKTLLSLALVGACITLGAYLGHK
Procedure: Therefore the possibility that a conformational change might be involved in the conversion of Bcl-2 from anti-apoptotic to pro-apoptotic function was explored. To this end, the effects of TR3 on binding of Bcl-2 to various anti-Bcl-2 antibodies recognizing different epitopes were compared. Antibody binding to Bcl-2 was measured by immunofluorescence using flow cytometry (See FIGS. 9a-f) or by immunoprecipitation.
The transfected cells were identified by their green fluorescence by flow cytometric analysis, and the intensity of Bcl-2 immunofluorescence was compared between the GFP-positive and GFP-negative cells. […] This TR3/ΔDBD-induced change in Bcl-2 conformation was also observed in PBLs in addition to HEK293T cells (See FIGS. 9a-f).

Bcl-2/1-80 = molecular target: T2, Bcl-2/1-80 (Homo sapiens, UniProt P10415); experiment: Co-IP assay with Bcl-2/1-80; format: binding
T2 construct: a fragment of Bcl-2 comprising the first 80 amino acids (Bcl-2/1-80); expressed in transfected cells; host or cells: HEK293T
T2 sequence (P10415 1-80): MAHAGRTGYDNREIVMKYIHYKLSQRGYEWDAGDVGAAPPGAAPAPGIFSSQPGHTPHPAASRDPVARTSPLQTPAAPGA
Procedure: (§2) Therefore, TR3/ΔDBD was analyzed as to its interaction with a fragment of Bcl-2 comprising the first 80 amino acids (Bcl-2/1-80). […] The Bcl-2/1-80 fragment encompasses the N-terminal BH4 domain followed by an unstructured loop domain of approximately 50 amino acids length. To determine whether the BH4 domain or the loop region was responsible for binding to TR3/ΔDBD, TR3/ΔDBD interaction with Bcl-2 mutants lacking the BH4 domain (Bcl-2/ΔBH4) or the loop region (Bcl-2/ΔLoop) was analyzed. […] Thus, the loop region of Bcl-2 is involved in binding to TR3.
Deletion of the loop region of Bcl-2 completely blocks paclitaxel-induced apoptosis (Rakesh et al. 1999 PNAS USA 96:3775-3780). To further investigate whether the loop region of Bcl-2 is responsible for its interaction with TR3/ΔDBD, TR3/ΔDBD was co-transfected with the first 80-residue fragment of Bcl-2 including the loop region and BH4 domain.

Bcl-2/ΔLoop = experiment: Co-IP assay with Bcl-2/ΔLoop; format: binding
Procedure: as §2

Bcl-2/ΔBH4 = molecular target: T3, Bcl-2/ΔBH4 (Homo sapiens, UniProt P10415, DEL7-30); experiment: Co-IP assay with Bcl-2/ΔBH4; format: binding
T3 construct: expressed in transfected cells; host or cells: HEK293T
T3 sequence (P10415 with tags, fused parts or gaps DEL7-30): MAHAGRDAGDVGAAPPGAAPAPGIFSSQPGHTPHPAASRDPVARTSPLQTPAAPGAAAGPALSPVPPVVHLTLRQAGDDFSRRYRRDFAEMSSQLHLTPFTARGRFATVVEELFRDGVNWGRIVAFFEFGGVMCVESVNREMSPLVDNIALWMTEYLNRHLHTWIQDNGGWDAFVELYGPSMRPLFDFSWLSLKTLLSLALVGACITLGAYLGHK
Procedure: as §2

[3] = test system: peripheral blood lymphocytes (PBLs); experiment: Apoptosis of peripheral blood lymphocytes; format: cell-based, human; settings: annexin V-staining, transfection
Procedure: Isolation and transfection of human peripheral blood lymphocytes (PBLs)—Leukocyte-enriched buffy coats from San Diego Blood Bank were diluted with 2 volumes of PBS, and PBLs were isolated by centrifuge on Ficoll-paque™ Plus (Amersham Pharmacia biotech). The mononuclear cells were cultured in RPMI containing 10% FBS and 20 μM Hepes. Freshly isolated cells (10^7 cells per transfection) were washed once with PBS containing 0.5% BSA and supernatant was completely discarded so that no residual PBS/BSA covers the pellet. The cells were resuspended in 100 μl of the human T Cell Nucleofector™ solution (Amexa biosystems) and very gently mixed with 1-4 μg DNA in 5 μl. The cell suspension was transferred into a cuvette supplied by Amexa biosystems and electroporated using U-14 program of Nucleofector™ device. The cells were removed from the cuvette quickly by adding 500 μl of the pre-warmed RPMI medium containing 10% FBS and 20 μM Hepes and transferred into 12 well plates containing 1.5 ml of pre-warmed culture medium.

- Bcl-2 immunofluorescence, antibody against BH3-binding pocket (Bcl-2): reduced
- Bcl-2 immunofluorescence, antibody against Bcl-2 BH3 domain (Bcl-2): dramatically increased
- interaction with Bcl-2/1-80 (Co-IP) (Bcl-2/1-80): strongly interacted
- interaction with Bcl-2/ΔBH4 (Co-IP) (Bcl-2/ΔBH4): retained the ability to interact
B1: TR3/ΔDBD: TR3 mutant with the DNA binding domain removed; used as GFP fusion (protein)
chain: MPCIQAQYGTPAPSPGPRDHLASDPLTPEFIKPTMDLASPEAAPAAPTALPSFSTFMDGYTGEFDTFLYQLPGTVQPCSSASSSASSTSSSSATSPASASFKFEDFQVYGCYPGPLSGPVDEALSSSGSDYYGSPCSAPSPSTPSFQPPQLSPWDGSFGHFSPSQTYLVLHRLQCARGFGDWIDSILAFSRSLHSLLVDVPAFACLSALVLITDRHGLQEPRRVEELQNRIASCLKEHVAAVAGEPQPASCLSRLLGKLPELRTLCTQGLQRIFYLKLEDLVPPPPIIDKIFMDTLPF
modifications: left off: large carriers; small tags and cut ends
notes: used as GFP fusion
- GFP-TR3/ΔDBD subcellular localization (MDA-MB-231 cells): targeted to mitochondria
- cytochrome c release (MDA-MB-231 cells): caused release of cytochrome c from the mitochondria
- GFP-TR3/ΔDBD subcellular localization [1]: targeted to mitochondria
- apoptosis ([2]; MCF-7, absence of Bcl-2): did not show any apoptotic effect
- apoptosis ([2]; MCF-7, co-expression of Bcl-2): strong induction of apoptosis
- Bcl-2 immunofluorescence, antibody against whole Bcl-2 protein (Bcl-2): did not result in altered Bcl-2 immunofluorescence
- interaction with Bcl-2/ΔLoop (Co-IP) (Bcl-2/ΔLoop): did not
- PBL apoptosis [3]: potently induced PBL apoptosis
